The source of these data is patent US20240376170A1.

Bridges are numbered along the chain shown (N, C = ends). Primed or numbered codes have the meaning given here. [ ]: non-standard residue; d: D form. Ygp(4) = Tyr with amino-capped PEG8 (O-(8x polyethylene glycol-amino)-tyrosine); Yn3(4) = Tyr with azide-capped PEG9 (O-(9x polyethylene glycol-azido)-tyrosine); PEG9″ = 9x polyethylene glycol spacer; PEG4′ = 4x polyethylene glycol; PEG9′ = 9x polyethylene glycol; hSer = N[C@@H](CCO)C(=O)O; Nle = CCCC[C@H](N)C(=O)O

To fix the notation:
B1: CMP-154 (ligand)
chain: PLGLAGAPTSSSTKKTQLQLEHLLLDLQ[Nle]ILNGIENYKNPKLTR[Nle]L[hSer][Yn3(4)]KF[Ygp(4)][Nle]PKKATELKHLQCLEEELKPLEEVL[hSer]LAQSKNFHLRPRDLISNINVIVLELKGSETTF[hSer]CEYADETATIVEFLNRWITFSQSIISTLT
modifications: linker N-35 via PEG9′; not fully specified (N-terminus); ends not checked
B2: CMP-152 (ligand)
chain: PLGLAGAPTSSSTKKTQLQLEHLLLDLQXILNGINNYKNPKLTRXLXYKFYXPKKATELKHLQCLEEELKPLEEVLXLAQSKNFHLRPRDLISNINVIVLELKGSETTFXCEYADETATIVEFLNRWITFSQSIISTLT
modifications: not fully specified; Nle, Hse, Yn3 (Tyr with azide-capped PEG9), Ygp (Tyr with amino-capped PEG8) as printed in Table 3; PEG9-PLGLAG on the N-terminus, cyclised through glutaryl to the side chain of Lys 32
B3: CMP-161 (ligand)
chain: PLGLAGAPTSSSTKKTQLQLEHLLLDLQ[Nle]ILEGINNYKNPKLTR[Nle]L[hSer][Yn3(4)]KF[Ygp(4)][Nle]PKKATELKHLQCLEEELKPLEEVL[hSer]LAQSKNFHLRPRDLISNINVIVLELKGSETTF[hSer]CEYADETATIVEFLNRWITFSQSIISTLT
modifications: linker N-32 via PEG9″; not fully specified (N-terminus); ends not checked
B4: CMP-154, MMP2 cleaved (ligand)
chain: PLGLAGAPTSSSTKKTQLQLEHLLLDLQ[Nle]ILNGIENYKNPKLTR[Nle]L[hSer][Yn3(4)]KF[Ygp(4)][Nle]PKKATELKHLQCLEEELKPLEEVL[hSer]LAQSKNFHLRPRDLISNINVIVLELKGSETTF[hSer]CEYADETATIVEFLNRWITFSQSIISTLT
modifications: linker N-35 via PEG9′; not fully specified (N-terminus); ends not checked; also: cleavable peptide cut by MMP2, site not given here
B5: CMP-159, MMP2 cleaved (ligand)
chain: PLGLAGAPTSSSTKKTQLQLEHLLLDLE[Nle]ILNGINNYKNPKLTR[Nle]L[hSer][Yn3(4)]KF[Ygp(4)][Nle]PKKATELKHLQCLEEELKPLEEVL[hSer]LAQSKNFHLRPRDLISNINVIVLELKGSETTF[hSer]CEYADETATIVEFLNRWITFSQSIISTLT
modifications: linker N-28 via PEG4′; not fully specified (N-terminus); ends not checked; also: cut by MMP2 in the PLGLAG linker, site not given here, ring opened
B6: CMP-159 (ligand)
chain: PLGLAGAPTSSSTKKTQLQLEHLLLDLE[Nle]ILNGINNYKNPKLTR[Nle]L[hSer][Yn3(4)]KF[Ygp(4)][Nle]PKKATELKHLQCLEEELKPLEEVL[hSer]LAQSKNFHLRPRDLISNINVIVLELKGSETTF[hSer]CEYADETATIVEFLNRWITFSQSIISTLT
modifications: linker N-28 via PEG4′; not fully specified (N-terminus); ends not checked
B7: CMP-152, MMP2 cleaved (ligand)
chain: PLGLAGAPTSSSTKKTQLQLEHLLLDLQ[Nle]ILNGINNYKNPKLTR[Nle]L[hSer][Yn3(4)]KF[Ygp(4)][Nle]PKKATELKHLQCLEEELKPLEEVL[hSer]LAQSKNFHLRPRDLISNINVIVLELKGSETTF[hSer]CEYADETATIVEFLNRWITFSQSIISTLT
modifications: linker N-38 via glutaryl‑PEG9; not fully specified (N-terminus); ends not checked; also: cleavable peptide cut by MMP2, site not given here
B8: CMP-161, MMP2 cleaved (ligand)
chain: PLGLAGAPTSSSTKKTQLQLEHLLLDLQ[Nle]ILEGINNYKNPKLTR[Nle]L[hSer][Yn3(4)]KF[Ygp(4)][Nle]PKKATELKHLQCLEEELKPLEEVL[hSer]LAQSKNFHLRPRDLISNINVIVLELKGSETTF[hSer]CEYADETATIVEFLNRWITFSQSIISTLT
modifications: not fully specified (N-terminus, bridges); ends and bridges not checked; also: cut by MMP2 in the PLGLAG linker, site not given here, ring opened

In this assay the target is IL-2Rβγ (CD122+, CD132+) on HEK-Blue IL-2Rβγ reporter cells (UniProt P14784). The experiment in a line: cell-based or functional assay.
Sequence of IL-2Rβγ (CD122+, CD132+) on HEK-Blue IL-2Rβγ reporter cells (P14784 27-551 limits assumed, chain 1 of 2): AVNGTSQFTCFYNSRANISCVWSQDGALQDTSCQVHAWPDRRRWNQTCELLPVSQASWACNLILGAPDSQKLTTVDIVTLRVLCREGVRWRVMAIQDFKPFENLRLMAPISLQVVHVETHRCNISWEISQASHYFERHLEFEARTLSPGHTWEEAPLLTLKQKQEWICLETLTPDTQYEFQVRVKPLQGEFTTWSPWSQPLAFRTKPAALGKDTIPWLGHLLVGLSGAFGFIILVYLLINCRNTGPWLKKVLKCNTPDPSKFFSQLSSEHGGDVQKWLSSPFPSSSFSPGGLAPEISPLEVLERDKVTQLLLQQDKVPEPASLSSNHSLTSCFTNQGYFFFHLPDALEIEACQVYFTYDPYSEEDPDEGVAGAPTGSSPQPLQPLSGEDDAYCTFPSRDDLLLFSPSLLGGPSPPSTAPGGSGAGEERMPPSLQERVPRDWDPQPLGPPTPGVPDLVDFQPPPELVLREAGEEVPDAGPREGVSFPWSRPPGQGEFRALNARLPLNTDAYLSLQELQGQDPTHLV
Sequence of IL-2Rβγ (CD122+, CD132+) on HEK-Blue IL-2Rβγ reporter cells (P31785 23-369 limits assumed, chain 2 of 2, further chain): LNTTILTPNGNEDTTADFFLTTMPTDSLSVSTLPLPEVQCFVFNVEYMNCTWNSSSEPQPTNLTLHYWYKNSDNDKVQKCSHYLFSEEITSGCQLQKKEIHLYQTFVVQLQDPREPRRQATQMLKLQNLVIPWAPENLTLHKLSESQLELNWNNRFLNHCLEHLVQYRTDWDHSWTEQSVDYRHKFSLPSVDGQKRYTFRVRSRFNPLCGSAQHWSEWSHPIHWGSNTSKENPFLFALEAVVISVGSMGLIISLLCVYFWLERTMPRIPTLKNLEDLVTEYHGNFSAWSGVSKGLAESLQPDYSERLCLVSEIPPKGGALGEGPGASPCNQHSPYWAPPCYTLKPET
As for B1, the Average EC50 (nM), HEK-Blue IL-2R (CD122+, CD132+) Reporter Assay was 0.106 nM.

On to B2, for which the Average EC50 (nM), HEK-Blue IL-2R (CD122+, CD132+) Reporter Assay worked out at 0.0597 nM.

B3 displayed an Average EC50 (nM), HEK-Blue IL-2R (CD122+, CD132+) Reporter Assay of 0.168 nM.

Molecule B4 returned an Average EC50 (nM), HEK-Blue IL-2R (CD122+, CD132+) Reporter Assay of 0.0059 nM.

B5: the Average EC50 (nM), HEK-Blue IL-2R (CD122+, CD132+) Reporter Assay was determined as 0.0071 nM.

In turn, B6 gave an Average EC50 (nM), HEK-Blue IL-2R (CD122+, CD132+) Reporter Assay of 0.192 nM.

With B7, the Average EC50 (nM), HEK-Blue IL-2R (CD122+, CD132+) Reporter Assay came to 0.0064 nM.

The molecule B8 showed an Average EC50 (nM), HEK-Blue IL-2R (CD122+, CD132+) Reporter Assay of 0.0118 nM.
